These results are taken from paper doi:10.1101/2022.10.27.514150.

This test concerns the target Gluc1-E2F4 (human), Q16254. The test is described as follows: split reporter. The following applies: remark: other sources report otherwise.

Gluc1-E2F4 (human), Q16254, sequence (Q16254 whole entry): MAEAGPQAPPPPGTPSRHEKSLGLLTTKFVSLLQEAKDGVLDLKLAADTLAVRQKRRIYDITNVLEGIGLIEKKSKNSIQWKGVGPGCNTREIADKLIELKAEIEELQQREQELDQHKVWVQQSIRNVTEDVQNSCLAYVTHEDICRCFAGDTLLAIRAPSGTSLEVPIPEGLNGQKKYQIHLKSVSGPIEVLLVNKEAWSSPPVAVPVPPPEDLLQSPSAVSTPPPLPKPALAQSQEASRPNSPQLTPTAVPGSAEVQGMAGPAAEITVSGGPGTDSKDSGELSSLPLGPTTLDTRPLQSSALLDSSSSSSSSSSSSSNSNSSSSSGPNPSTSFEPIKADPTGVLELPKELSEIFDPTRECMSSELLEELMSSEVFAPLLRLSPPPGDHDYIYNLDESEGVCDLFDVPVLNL

B1: Gluc2-p130, Q08999 1-1139 (natural protein)
chain: MPSGGDQSPPPPPPPPAAAASDEEEEDDGEAEDAAPPAESPTPQIQQRFDELCSRLNMDEAARAEAWDSYRSMSESYTLEGNDLHWLACALYVACRKSVPTVSKGTVEGNYVSLTRILKCSEQSLIEFFNKMKKWEDMANLPPHFRERTERLERNFTVSAVIFKKYEPIFQDIFKYPQEEQPRQQRGRKQRRQPCTVSEIFHFCWVLFIYAKGNFPMISDDLVNSYHLLLCALDLVYGNALQCSNRKELVNPNFKGLSEDFHAKDSKPSSDPPCIIEKLCSLHDGLVLEAKGIKEHFWKPYIRKLYEKKLLKGKEENLTGFLEPGNFGESFKAINKAYEEYVLSVGNLDERIFLGEDAEEEIGTLSRCLNAGSGTETAERVQMKNILQQHFDKSKALRISTPLTGVRYIKENSPCVTPVSTATHSLSRLHTMLTGLRNAPSEKLEQILRTCSRDPTQAIANRLKEMFEIYSQHFQPDEDFSNCAKEIASKHFRFAEMLYYKVLESVIEQEQKRLGDMDLSGILEQDAFHRSLLACCLEVVTFSYKPPGNFPFITEIFDVPLYHFYKVIEVFIRAEDGLCREVVKHLNQIEEQILDHLAWKPESPLWEKIRDNENRVPTCEEVMPPQNLERADEICIAGSPLTPRRVTEVRADTGGLGRSITSPTTLYDRYSSPPASTTRRRLFVENDSPSDGGTPGRMPPQPLVNAVPVQNVSGETVSVTPVPGQTLVTMATATVTANNGQTVTIPVQGIANENGGITFFPVQVNVGGQAQAVTGSIQPLSAQALAGSLSSQQVTGTTLQVPGQVAIQQISPGGQQQKQGQSVTSSSNRPRKTSSLSLFFRKVYHLAAVRLRDLCAKLDISDELRKKIWTCFEFSIIQCPELMMDRHLDQLLMCAIYVMAKVTKEDKSFQNIMRCYRTQPQARSQVYRSVLIKGKRKRRNSGSSDSRSHQNSPTELNKDRTSRDSSPVMRSSSTLPVPQPSSAPPTPTRLTGANSDMEEEERGDLIQFYNNIYIKQIKTFAMKYSQANMDAPPLSPYPFVRTGSPRRIQLSQNHPVYISPHKNETMLSPREKIFYYFSNSPSKRLREINSMIRTGETPTKKRGILLEDGSESPAKRICPENHSALLRRLQDVANDRGSH
For the molecule B1, the normalized luminescence ratio (NLR) is greater than 40.
